The target of one assay is T1, human Kv1.3 (huKv1.3) (Homo sapiens, UniProt P22001).
T1 construct: host or cells: CHO
In words: QPatch automated patch-clamp, CHO cells stably expressing human Kv1.3 (Examples 19-21). Type of assay: cell-based. The protocol: The effect of these KnotBodies on cells expressing human Kv1.3 (huKv1.3) channel was assessed using the QPatch automated patch-clamp platform (Sophion, Ballerup, Denmark). For the testing of Kv1.3 ion channel currents, CHO cells stably expressing human Kv1.3 (GenBank accession number NM_002232.2; cell line catalogue number CT6133, Charles River Discovery, Cleveland, USA) were subjected to a QPatch electrophysiology assay in the presence or absence of the KnotBody fusions or the antibody isotypes (negative controls). Internal and external physiological solutions were freshly prepared prior to the assay. The extracellular solution contained 145 mM NaCl, 4 mM KC1, 2 mM CaC12, 1 mM MgC12, 10 mM HEPES and 10 mM glucose; the pH was adjusted to 7.4 with NaOH; the osmolarity was ~ 305 mOsm/L. The intracellular solution contained: KF (120 mM), KC1 (20 mM), HEPES (10 mM) EGTA (10 mM); the pH was adjusted to 7.2 with KOH; osmolarity was ~ 300 mOsm/L.
(§1) A series of depolarising voltage (channel activating) pulses were used to monitor the channel currents upon adding control (extracellular solution) to define a control baseline of current activity. To these measured control currents four, ascending concentrations of KnotBodies (including KB_A12_ShK and KB_A12_KTX as previously described in Example 8) or parental antibody isotypes (control molecules) were applied to the external bathing solution. KnotBodies KB_A12 and KB_A07 (EETI-II fusions) were used as isotype controls for the testing. From a holding voltage of -80 mV a depolarising, activating voltage pulses of +30 mV were applied for 300 ms, every 10 seconds. The elicited, maximum outward current values measured during the activating step for each solution exchange period, averaged (n = 3 - 6 for each concentration applied) and plotted as concentration-response curves (see FIG. 32). From these concentration-response curves IC50 values were calculated.
(§2) For the testing of Kv1.1 and Kv1.3, CHO-S expressing huKv1.1 (described above) or CHO cells stably expressing huKv1.3 (Charles River Lab) were analysed using the QPatch electrophysiology assay in the presence or absence of the KnotBody fusions. Internal and external physiological solutions were freshly prepared prior to the assay. The extracellular solution contained 145 mM NaCl, 4 mM KC1, 2 mM CaC12, 1 mM MgC12, 10 mM HEPES and 10 mM glucose; the pH was adjusted to 7.4 with NaOH; the osmolarity was ~ 305 mOsm/L. The intracellular solution contained: KF (120 mM), KC1 (20 mM), HEPES (10 mM) EGTA (10 mM); the pH was adjusted to 7.2 with KOH; osmolarity was ~ 300 mOsm/L.
as §1, with “(including previously described” for “(including”, “KB_A12_KTX” for “KB_A12_KTX as previously”, “[…]” for “+30 mV”, “33).” for “32).”, “calculated (see Table E20).” for “calculated.”
(§3) For the testing of Kv1.1 and Kv1.3, CHO-S expressing huKv1.1 (see Example 20 and below) or CHO cells stably expressing huKv1.3 (Charles River Lab) were analysed using the QPatch electrophysiology assay in the presence or absence of the KnotBody fusions - see details in Examples 19 and 20.
On the technique in general: In patch-clamp work, channel activity is measured electrically.

For the next assay, the target named is T2, human Kv1.1 (huKv1.1) (Homo sapiens, UniProt Q09470).
T2 construct: expressed in transfected cells; host or cells: Freestyle CHO-S
In words: QPatch automated patch-clamp, CHO-S cells expressing huKv1.1 (Examples 20-21). Type of assay: cell-based. The protocol: 1. The effect of these KnotBodies on cells expressing human Kv1.1 (huKv1.1) and Kv1.3 (huKv1.3) channels was assessed using QPatch automated patch-clamp platform (Sophion).
To generate huKv1.1 expressing cells, Freestyle CHO-S cells (Cat. no. R80007, Life Technologies, California, USA) were transfected with pINT50-Tr plasmid encoding huKv1.1 gene using the MaxCyte STX (MaxCyte) transfection system. In pINT50-Tr plasmid, huKv1.1 gene is under the control of a CMV promoter. 64 µg of the plasmid DNA were added to 400 µl of Freestyle CHO-S cells (at a density of 1 × 10^8 cells/ml) in Electroporation Buffer (GE Healthcare Life Sciences, Cat. no. EPB1) in an OC-400 processing assembly (MaxCyte). Following electroporation, the cells were transferred to a well of a 24-well plate containing 200 U/ml DNAse I (Sigma, D4263) and incubated for 20 minutes at 37° C. and 5% CO2. The cells were then transferred into a 100 ml shaker flask containing 20 ml of CD Opticho Media (Thermo Fisher Scientific, Cat.No 12681-011,) supplemented with 8 mM L-Glut (Thermo Fisher Scientific, cat. no. 25030-024). The cells were incubated for 24 hours at 37° C. and 5% CO2 (and 75% humidity and shaking at 800 rpm) prior to testing using automated patch clamp electrophysiology.
as §2
as §1, with “(including previously described” for “(including”, “KB_A12_KTX” for “KB_A12_KTX as previously”, “[…]” for “+30 mV”, “33).” for “32).”, “calculated (see Table E20).” for “calculated.”
as §3
In addition to the CHO-S transiently expressing huKv1.1 (described in Example 20), CHO-S cells with poly-clonal stable expression of huKv1.1 cells were also made and used in the QPatch electrophysiology assay. To generate the polyclonal stable huKv1.1 cells from the transiently expressing cells described in Example 20, after a 24 hour incubation period the selection antibiotic Puromycin (catalogue no. A1 1138-03, Life Technologies, California, USA) was added to culture media. Then, for the first 14 days puromycin was at 10 µg ml-1 media; at days 15-28 puromycin was at 20 µg ml-1 media. Cell cultures were seeded at 2.5 x 10^5 cells ml^-1 into fresh culture media and puromycin twice per week through this selection growth period. […]

Setting [1] is: Kv1.1 IC50 over Kv1.3 IC50, Table E20.
Setting [2] is: four-point curves of FIG. 33, Table E20, read-out: Kv1.3 IC50.
The mark [3] stands for this setting: huKv1.3, four-point curves of FIG. 32, Table E19, read-out: IC50.
The mark [4] stands for this setting: four-point curves of FIG. 33, Table E20.

In general, IC50 refers to the concentration needed to halve the response being measured.

Read-outs that look alike come from different tables or passages of the source.

T2 sequence (Q09470 whole entry): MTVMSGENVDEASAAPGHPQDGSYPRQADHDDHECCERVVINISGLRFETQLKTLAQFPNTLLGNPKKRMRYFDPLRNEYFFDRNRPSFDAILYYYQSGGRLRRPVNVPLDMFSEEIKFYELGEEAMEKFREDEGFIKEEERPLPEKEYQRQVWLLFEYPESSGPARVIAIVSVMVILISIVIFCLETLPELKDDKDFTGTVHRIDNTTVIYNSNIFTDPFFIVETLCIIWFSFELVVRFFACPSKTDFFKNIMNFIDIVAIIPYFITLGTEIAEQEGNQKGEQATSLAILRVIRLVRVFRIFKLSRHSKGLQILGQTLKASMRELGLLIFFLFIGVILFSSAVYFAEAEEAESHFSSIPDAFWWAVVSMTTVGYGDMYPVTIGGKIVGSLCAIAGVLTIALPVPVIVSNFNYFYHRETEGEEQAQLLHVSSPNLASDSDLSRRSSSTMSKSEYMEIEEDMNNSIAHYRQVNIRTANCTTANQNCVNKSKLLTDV
T1 sequence (P22001 whole entry): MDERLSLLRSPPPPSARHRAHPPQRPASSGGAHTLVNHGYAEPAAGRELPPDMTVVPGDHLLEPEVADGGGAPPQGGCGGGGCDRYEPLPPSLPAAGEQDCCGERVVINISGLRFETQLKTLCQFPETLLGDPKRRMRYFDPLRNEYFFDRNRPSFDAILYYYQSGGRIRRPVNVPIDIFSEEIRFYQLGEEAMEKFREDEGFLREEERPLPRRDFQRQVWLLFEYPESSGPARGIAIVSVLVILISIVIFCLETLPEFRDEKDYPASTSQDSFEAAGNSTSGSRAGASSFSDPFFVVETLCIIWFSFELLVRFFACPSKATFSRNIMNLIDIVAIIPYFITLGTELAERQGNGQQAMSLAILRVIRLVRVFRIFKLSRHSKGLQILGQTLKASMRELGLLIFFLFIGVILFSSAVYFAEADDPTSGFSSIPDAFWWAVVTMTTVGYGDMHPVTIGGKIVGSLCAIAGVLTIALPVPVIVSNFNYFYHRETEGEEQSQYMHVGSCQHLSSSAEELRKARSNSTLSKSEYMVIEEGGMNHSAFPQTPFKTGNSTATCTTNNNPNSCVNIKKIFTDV

B1: KB_A12_Odk2 short: truncated OdK2 in VL CDR2 of KB_A12, IgG (antibody, V domains shown)
VH: EVQLVESGGGLVRPGGSLRLSCAASGFTFSSYAMSWVRQAPGKGLEWVSAISGSGGSTYYADSVKGRFTISRDNTKNSLYLQMTSLRADDTAFYYCVKDFGPGYGTGWFDYWGPGTLVTVSS
VL: QSVLTQPPSVSEAPRQRVTITCSGSSSNIGNNAVNWYQQLPGKAPKLLIYAAGRVKCRGSPQCIQPCKDAGMRFGKCMNGKCHCTPKANSGVSDRFSAAKSGTSASLAINGLRSEDEADYYCAAWDDSLNGYVFGTGTKLTVLG
B1 gave a Fold difference with human Kv1.3 (huKv1.3) (setting [1]) of 8. Also, the concentration for half-maximal inhibition (IC50) worked out at 49 nM in the assay with human Kv1.3 (huKv1.3) (setting [2]), 64 nM in the assay with human Kv1.3 (huKv1.3) (setting [3]) and 380 nM with human Kv1.1 (huKv1.1) (setting [4]).

B2: KB_A12_Odk2: OdK2 in VL CDR2 of KB_A12, IgG (antibody, V domains shown)
VH: EVQLVESGGGLVRPGGSLRLSCAASGFTFSSYAMSWVRQAPGKGLEWVSAISGSGGSTYYADSVKGRFTISRDNTKNSLYLQMTSLRADDTAFYYCVKDFGPGYGTGWFDYWGPGTLVTVSS
VL: QSVLTQPPSVSEAPRQRVTITCSGSSSNIGNNAVNWYQQLPGKAPKLLIYAAGRGVPTDVKCRGSPQCIQPCKDAGMRFGKCMNGKCHCTPKANSGVSDRFSAAKSGTSASLAINGLRSEDEADYYCAAWDDSLNGYVFGTGTKLTVLG
Take B2: the Fold difference in the assay with human Kv1.3 (huKv1.3) (setting [1]) is listed as 6. The IC50 with human Kv1.3 (huKv1.3) (setting [2]) came to 457 nM; with human Kv1.3 (huKv1.3) (setting [3]), 222 nM; with human Kv1.1 (huKv1.1) (setting [4]) it was 2750 nM.

B3: KB_A12_HsTx1 R14A (antibody, V domains shown)
VH: EVQLVESGGGLVRPGGSLRLSCAASGFTFSSYAMSWVRQAPGKGLEWVSAISGSGGSTYYADSVKGRFTISRDNTKNSLYLQMTSLRADDTAFYYCVKDFGPGYGTGWFDYWGPGTLVTVSS
VL: QSVLTQPPSVSEAPRQRVTITCSGSSSNIGNNAVNWYQQLPGKAPKLLIYAAGRASCRTPKDCADPCAKETGCPYGKCMNRKCKCNRCANSGVSDRFSAAKSGTSASLAINGLRSEDEADYYCAAWDDSLNGYVFGTGTKLTVLG
Turning to B3, in the assay with human Kv1.3 (huKv1.3) (Kv1.1 IC50 over Kv1.3 IC50, Table E21), the Fold difference is reported as above 3500. The IC50 amounted to 0.9 nM with human Kv1.3 (huKv1.3) (Table E21, read-out: Kvl.3 IC50) and 2990 nM with human Kv1.1 (huKv1.1) (Table E21).

B4: KB_A12_HsTx1 (antibody, V domains shown)
VH: EVQLVESGGGLVRPGGSLRLSCAASGFTFSSYAMSWVRQAPGKGLEWVSAISGSGGSTYYADSVKGRFTISRDNTKNSLYLQMTSLRADDTAFYYCVKDFGPGYGTGWFDYWGPGTLVTVSS
VL: QSVLTQPPSVSEAPRQRVTITCSGSSSNIGNNAVNWYQQLPGKAPKLLIYAAGRASCRTPKDCADPCRKETGCPYGKCMNRKCKCNRCANSGVSDRFSAAKSGTSASLAINGLRSEDEADYYCAAWDDSLNGYVFGTGTKLTVLG
B4: the Fold difference with human Kv1.3 (huKv1.3) (setting [1]) is recorded as 43. The IC50 turned out to be 15 nM with human Kv1.3 (huKv1.3) (setting [2]), 3.9 nM with human Kv1.3 (huKv1.3) (setting [3]) and 650 nM with human Kv1.1 (huKv1.1) (setting [4]).

B5: KB_A12_ADWX1 short: truncated ADWX-1 in VL CDR2 of KB_A12, IgG (antibody, V domains shown)
VH: EVQLVESGGGLVRPGGSLRLSCAASGFTFSSYAMSWVRQAPGKGLEWVSAISGSGGSTYYADSVKGRFTISRDNTKNSLYLQMTSLRADDTAFYYCVKDFGPGYGTGWFDYWGPGTLVTVSS
VL: QSVLTQPPSVSEAPRQRVTITCSGSSSNIGNNAVNWYQQLPGKAPKLLIYAAGRVKCKHSRQCLKPCKDAGMRFGKCTNGKCHCTPKANSGVSDRFSAAKSGTSASLAINGLRSEDEADYYCAAWDDSLNGYVFGTGTKLTVLG
In the case of B5, the Fold difference with human Kv1.3 (huKv1.3) (setting [1]) worked out at 6. Besides, the IC50 in the assay with human Kv1.3 (huKv1.3) (setting [2]) is 251 nM; in the assay with human Kv1.3 (huKv1.3) (setting [3]) it was 170 nM; in the assay with human Kv1.1 (huKv1.1) (setting [4]) it was 1400 nM.

B6: KB_A12_AnTx 2 M: AnTx N17A/F32T in VL CDR2 of KB_A12, IgG (antibody, V domains shown)
VH: EVQLVESGGGLVRPGGSLRLSCAASGFTFSSYAMSWVRQAPGKGLEWVSAISGSGGSTYYADSVKGRFTISRDNTKNSLYLQMTSLRADDTAFYYCVKDFGPGYGTGWFDYWGPGTLVTVSS
VL: QSVLTQPPSVSEAPRQRVTITCSGSSSNIGNNAVNWYQQLPGKAPKLLIYAAGRQKECTGPQHCTNFCRKAKCTHGKCMNRKCKCTNCKANSGVSDRFSAAKSGTSASLAINGLRSEDEADYYCAAWDDSLNGYVFGTGTKLTVLG
B6 yielded a Fold difference with human Kv1.3 (huKv1.3) (setting [1]) of 94. The IC50 with human Kv1.3 (huKv1.3) (setting [2]) is 110 nM; with human Kv1.3 (huKv1.3) (setting [3]) it was 85 nM; with human Kv1.1 (huKv1.1) (setting [4]), 10300 nM.

B7: KB_A12_Vm24: Vm24 in VL CDR2 of KB_A12, IgG (antibody, V domains shown)
VH: EVQLVESGGGLVRPGGSLRLSCAASGFTFSSYAMSWVRQAPGKGLEWVSAISGSGGSTYYADSVKGRFTISRDNTKNSLYLQMTSLRADDTAFYYCVKDFGPGYGTGWFDYWGPGTLVTVSS
VL: QSVLTQPPSVSEAPRQRVTITCSGSSSNIGNNAVNWYQQLPGKAPKLLIYAAGRAAAISCVGSPECPPKCRAQGCKNGKCMNRKCKCYYCANSGVSDRFSAAKSGTSASLAINGLRSEDEADYYCAAWDDSLNGYVFGTGTKLTVLG
In the assay with human Kv1.3 (huKv1.3) (setting [1]), B7 showed a Fold difference of 102. For the same molecule, the IC50 with human Kv1.3 (huKv1.3) (setting [2]) came to 12 nM; with human Kv1.3 (huKv1.3) (setting [3]), 16 nM; with human Kv1.1 (huKv1.1) (setting [4]), 1220 nM.

These data come from patent publication US20230331827A1, “POTASSIUM CHANNEL INHIBITORS” (priority 2017, published 2023).
